Data as given in patent publication US20070172423A1, “Composition and method for modulating vasculogenesis for angiogenesis” (priority 1998, published 2007).

Tests used:
[1] = tested on: human foreskin fibroblasts; assay: Mitogenicity for fibroblasts ([3H]thymidine incorporation); format: cell-based; settings: 3, 10 or 30 ng/ml, 24 hours
Description: The assay was performed essentially as described in Mori et al., J. Biol. Chem., 1991 266:21158-21164. Serum starved human foreskin fibroblasts were incubated for 24 hours with 1 ml of serum-free medium supplemented with 1 mg/ml BSA and 3 ng/ml, 10 ng/ml or 30 ng/ml of full length PDGF-CC (flPDGF-CC), truncated PDGF-CC (cPDGF-CC) or PDGF-AA in the presence of […] [3H]thymidine. After trichloroacetic acid (TCA) precipitation, the incorporation of [3H]thymidine into DNA was determined using a beta-counter. […] PDGF-AA is included in the experiment as a control.

aortic rings = assay: Aortic ring assay; format: cell-based
Description: Cell migration assays were performed on growth arrested confluent HMVEC, BAEC or hSMC cells. Cell monolayers were wounded with a rubber policeman and washed with serum-free medium. Dishes were then incubated for 20 hours in serum-free medium containing VEGF165, PDGF-AA, (R&D Systems, Minneapolis USA) or PDGF-CC. Each assay included two dishes per condition and was repeated three times independently. Cells were photographed at 40× magnification, and migration percentage corresponding to the ratio between area of the cells and the total area of the wound (Biocom visiol@b 2000 version 4.52, San Diego). For HMVEC proliferation assay, cells were seeded in 96-well plates (5 wells per condition), and incubated with VEGF, PDGF-AA, or PDGF-CC (50 ng/ml) after serum starvation. After 7 days, viable cells were counted using the cell Titer-glo luminescent cell viability assay. For NIH-3T3 and hSMC proliferation assay, cells cultured in 96-well plates were serum-starved overnight, followed by treatment with growth factors at different concentrations. Two days later, cell numbers were counted and proliferation percentage calculated, using cells cultured in medium containing 10% serum as control. Aortic ring assay was performed as described 51. Briefly, one-millimeter long aortic rings were embedded in gels of rat tail interstitial collagen and cultured at 37° C., supplemented with different growth factors (50 ng/ml). Aortic rings were analysed at day 9 of culturing. Experiments included three explants per condition and were repeated at least twice. Aortic rings were photographed at 25× magnification.
Although PDGFR-α is expressed on endothelial cells (Edelberg et al., Journal of Clinical Investigation, 1998 102:837-43; Smits et al., Growth Factors, 1989 2:1-8; Bar et al., Endocrinology, 1989 124:1841-8; Beitz et al., Proc Natl Acad Sci USA, 1991 88:2021-5; Marx et al., J Clin Invest, 1994 93:131-9; Shinbrot et al., Dev. Dyn., 1994 199:169-175), little is known about the functional consequence of PDGFR-α signaling in these cells. […] We also tested the effect of PDGF-CC on cultured aortic rings, as this assay allows assessment of the outgrowth of microvessels from an intact vessel in vitro (Blacher et al., Angiogenesis, 2001 4:133-42). Results are graphically represented as the number of microvessels and the distance over which they grew out from the aortic ring. Each experiment included three explants per condition and was repeated at least twice. At day 9 after culturing, microvessels and the distance of their outgrowth were quantified and evaluated using Student's t test. In baseline conditions, only a small number of microvessels sprouted from the aortic rings—most of them over very short distances (0.25 mm from the aortic ring)—and only a small fraction (<5%) growing out over longer distances (>0.5 mm from the aortic ring, FIG. 41a). VEGF increased not only the number of sprouting microvessels (P<0.001 at all concentrations versus control), but also the distance over which they grew out (P<0.05 at all concentrations versus control; FIG. 41b,f). At 30 ng/ml, PDGF-CC increased the number of microvessels (P<0.001 versus control, FIG. 41e,g) and increased the distance of vessel outgrowth at 5 ng/ml (P<0.01 versus control, FIG. 41g). […] A similar bell-shaped dose-response relationship has been documented for other members of the VEGF/PDGF-superfamily (Jin et al., J Mol Neurosci, 2000 14:197-203). […]

human VEGFR-2 = target: T1, human VEGFR-2 (Homo sapiens, UniProt P35968); assay: Binding to soluble VEGFR-2-Ig fusion protein; settings: 35S-labeled protein in conditioned medium from 293 cells, precipitation with Ig-fusion protein
T1 construct: soluble Ig-fusion proteins containing the extracellular domains of human VEGFR-1, VEGFR-2 and VEGFR-3; made in house; host or cells: human 293 EBNA cells, transient expression
Description: To assess the interactions between full length and truncated PDGF-C and the VEGF receptors, full length and truncated PDGF-C were tested for their capacity to bind to soluble Ig-fusion proteins containing the extracellular domains of human VEGFR-1, VEGFR-2 and VEGFR-3 (Olofsson et al., Proc. Natl. Acad. Sci. USA, 1998 95:11709-11714). The fusion proteins, designated VEGFR-1-Ig, VEGFR-2-Ig and VEGFR-3-Ig, were transiently expressed in human 293 EBNA cells. All Ig fusion proteins were human VEGFRs. Cells were incubated for 24 hours after transfection, washed with Dulbecco's Modified Eagle Medium (DMEM) containing 0.2% bovine serum albumin and starved for 24 hours. The fusion proteins were then precipitated from the clarified conditioned medium using protein A-Sepharose beads (Pharmacia). The beads were combined with 100 microliters of 10× binding buffer (5% bovine serum albumin, 0.2% Tween 20 and 10 µg/ml heparin) and 900 microliter of conditioned medium from 293 cells that had been transfected with mammalian expression plasmids encoding full length or truncated PDGF-C or control vector, then metabolically labeled with ^35S-cysteine and methionine (Promix, Amersham) for 4 to 6 hours. […] Labeled proteins that were bound to the Ig-fusion proteins were analyzed by SDS-PAGE under reducing conditions. Radiolabeled proteins were detected using a phosphorimager analyzer.

T1 sequence (P35968 20-764 limits assumed): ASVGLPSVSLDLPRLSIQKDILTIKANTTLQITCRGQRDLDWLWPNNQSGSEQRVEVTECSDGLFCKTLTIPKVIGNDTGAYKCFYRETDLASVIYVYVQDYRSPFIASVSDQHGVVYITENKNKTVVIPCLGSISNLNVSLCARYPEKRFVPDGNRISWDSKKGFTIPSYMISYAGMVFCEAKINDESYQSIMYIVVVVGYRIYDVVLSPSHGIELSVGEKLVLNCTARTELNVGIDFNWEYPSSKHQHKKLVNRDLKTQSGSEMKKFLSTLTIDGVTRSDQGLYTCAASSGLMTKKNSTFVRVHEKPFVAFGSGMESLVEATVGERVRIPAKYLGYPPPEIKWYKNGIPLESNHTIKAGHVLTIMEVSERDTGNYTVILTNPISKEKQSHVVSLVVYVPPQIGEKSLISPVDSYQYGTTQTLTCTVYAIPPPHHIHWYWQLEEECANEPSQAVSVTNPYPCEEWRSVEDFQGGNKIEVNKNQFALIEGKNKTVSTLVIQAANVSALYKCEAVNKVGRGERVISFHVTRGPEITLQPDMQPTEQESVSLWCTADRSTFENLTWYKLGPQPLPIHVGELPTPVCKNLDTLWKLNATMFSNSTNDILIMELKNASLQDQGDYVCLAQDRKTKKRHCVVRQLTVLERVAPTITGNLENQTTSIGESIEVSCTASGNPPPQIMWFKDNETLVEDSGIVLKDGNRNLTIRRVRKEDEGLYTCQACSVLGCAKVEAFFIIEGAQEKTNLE

B1: PDGF-CC: recombinant human PDGF-CC core domain homodimer, residues 230-345 of full-length PDGF-C (SEQ ID NO:40), produced in baculovirus infected insect cells (protein)
chain: GRKSRVVDLNLLTEEVRLYSCTPRNFSVSIREELKRTDTIFWPGCLLVKRCGGNCACCLHNCNECQCVPSKVTKKYHEVLQLRPKTGVRGLHKSLTDVALEHHEECDCVCRGSTGG
modifications: homodimer; PDGF-C core domain
With B1 as the molecule, how does the “mitogenic activity on fibroblasts” value [1] read?
Its value is “potent mitogen”.

What about the “distance of vessel outgrowth” value (aortic rings; 5 ng/ml, day 9, versus control) of the same molecule?
Its value is “increased”.

What about the number of microvessels (aortic rings; 30 ng/ml, day 9, versus control) of the same molecule?
Its number of microvessels is “increased”.

What about the “concentration of maximal stimulation of perivascular fibroblast-like cells” value (aortic rings; FIG. 41 legend) of the same molecule?
The value was 5 to 10 ng/mL.

And the “concentration of maximum effect on microvessel sprouting” value (aortic rings; bell-shaped dose-response, less potent at 50 ng/ml)?
The value was 30 ng/mL.

What about the “number and emigration of perivascular fibroblast-like cells” value (aortic rings; day 9, versus control) of the same molecule?
The value was “significantly increased”.

What about the “interaction with VEGFR-2-Ig” value (human VEGFR-2) of the same molecule?
Its value is “failed to show any interaction”.
